B1: UUKV-N protein point mutant F31A, mammalian two-hybrid fusions (natural protein)
chain: MAMPENWVRFAIEISDAQWEEEEIREFINLAQYQGFDAAVVLSRIFELAKKADLSRDQMLRDIRALITLHLTRGNKLSSIEKRLSEEGKKEFALLKARYQLVDKAKEAADLTLSRIAIANAGLTCRILPQVVAHTAVTRSRMESLSADYPVCMMHNAFAGLIDETLPEDSIKALVDAHRLYLLEFSRTINVKHRGMEAKEILDANDSALQAGLASSFLTPSQKRAYLLSFKLVDGNGKVNKAVQQAATVLRSLI
notes: Uukuniemi virus nucleocapsid (N) protein, 254 aa residues; Mutation introduced into both the DNA-BD and the DNA-AD fusion; no chain carries both domains; source: HeLa, transfected, mammalian two-hybrid fusions
B2: UUKV-N protein point mutant Y33A, mammalian two-hybrid fusions (natural protein)
chain: MAMPENWVRFAIEISDAQWEEEEIREFINLFQAQGFDAAVVLSRIFELAKKADLSRDQMLRDIRALITLHLTRGNKLSSIEKRLSEEGKKEFALLKARYQLVDKAKEAADLTLSRIAIANAGLTCRILPQVVAHTAVTRSRMESLSADYPVCMMHNAFAGLIDETLPEDSIKALVDAHRLYLLEFSRTINVKHRGMEAKEILDANDSALQAGLASSFLTPSQKRAYLLSFKLVDGNGKVNKAVQQAATVLRSLI
notes: Uukuniemi virus nucleocapsid (N) protein, 254 aa residues; Mutation introduced into both the DNA-BD and the DNA-AD fusion; no chain carries both domains; also called negative control mutant; source: HeLa, transfected, mammalian two-hybrid fusions
B3: UUKV-N protein point mutant W7A, mammalian two-hybrid fusions (natural protein)
chain: MAMPENAVRFAIEISDAQWEEEEIREFINLFQYQGFDAAVVLSRIFELAKKADLSRDQMLRDIRALITLHLTRGNKLSSIEKRLSEEGKKEFALLKARYQLVDKAKEAADLTLSRIAIANAGLTCRILPQVVAHTAVTRSRMESLSADYPVCMMHNAFAGLIDETLPEDSIKALVDAHRLYLLEFSRTINVKHRGMEAKEILDANDSALQAGLASSFLTPSQKRAYLLSFKLVDGNGKVNKAVQQAATVLRSLI
notes: as for B1
B4: UUKV-N protein point mutant F27A, mammalian two-hybrid fusions (natural protein)
chain: MAMPENWVRFAIEISDAQWEEEEIREAINLFQYQGFDAAVVLSRIFELAKKADLSRDQMLRDIRALITLHLTRGNKLSSIEKRLSEEGKKEFALLKARYQLVDKAKEAADLTLSRIAIANAGLTCRILPQVVAHTAVTRSRMESLSADYPVCMMHNAFAGLIDETLPEDSIKALVDAHRLYLLEFSRTINVKHRGMEAKEILDANDSALQAGLASSFLTPSQKRAYLLSFKLVDGNGKVNKAVQQAATVLRSLI
notes: as for B1
B5: UUKV-N protein point mutant I24A, mammalian two-hybrid fusions (natural protein)
chain: MAMPENWVRFAIEISDAQWEEEEAREFINLFQYQGFDAAVVLSRIFELAKKADLSRDQMLRDIRALITLHLTRGNKLSSIEKRLSEEGKKEFALLKARYQLVDKAKEAADLTLSRIAIANAGLTCRILPQVVAHTAVTRSRMESLSADYPVCMMHNAFAGLIDETLPEDSIKALVDAHRLYLLEFSRTINVKHRGMEAKEILDANDSALQAGLASSFLTPSQKRAYLLSFKLVDGNGKVNKAVQQAATVLRSLI
notes: as for B1
B6: UUKV-N protein point mutant W19A, mammalian two-hybrid fusions (natural protein)
chain: MAMPENWVRFAIEISDAQAEEEEIREFINLFQYQGFDAAVVLSRIFELAKKADLSRDQMLRDIRALITLHLTRGNKLSSIEKRLSEEGKKEFALLKARYQLVDKAKEAADLTLSRIAIANAGLTCRILPQVVAHTAVTRSRMESLSADYPVCMMHNAFAGLIDETLPEDSIKALVDAHRLYLLEFSRTINVKHRGMEAKEILDANDSALQAGLASSFLTPSQKRAYLLSFKLVDGNGKVNKAVQQAATVLRSLI
notes: as for B1
B7: UUKV-N protein double mutant QQ244,245AA, mammalian two-hybrid fusions (natural protein)
chain: MAMPENWVRFAIEISDAQWEEEEIREFINLFQYQGFDAAVVLSRIFELAKKADLSRDQMLRDIRALITLHLTRGNKLSSIEKRLSEEGKKEFALLKARYQLVDKAKEAADLTLSRIAIANAGLTCRILPQVVAHTAVTRSRMESLSADYPVCMMHNAFAGLIDETLPEDSIKALVDAHRLYLLEFSRTINVKHRGMEAKEILDANDSALQAGLASSFLTPSQKRAYLLSFKLVDGNGKVNKAVAAAATVLRSLI
notes: Uukuniemi virus nucleocapsid (N) protein, 254 aa residues; source: HeLa, transfected, mammalian two-hybrid fusions
B8: UUKV-N protein point mutant R251A, mammalian two-hybrid fusions (natural protein)
chain: MAMPENWVRFAIEISDAQWEEEEIREFINLFQYQGFDAAVVLSRIFELAKKADLSRDQMLRDIRALITLHLTRGNKLSSIEKRLSEEGKKEFALLKARYQLVDKAKEAADLTLSRIAIANAGLTCRILPQVVAHTAVTRSRMESLSADYPVCMMHNAFAGLIDETLPEDSIKALVDAHRLYLLEFSRTINVKHRGMEAKEILDANDSALQAGLASSFLTPSQKRAYLLSFKLVDGNGKVNKAVQQAATVLASLI
notes: as for B7
B9: UUKV-N protein point mutant F10A, mammalian two-hybrid fusions (natural protein)
chain: MAMPENWVRAAIEISDAQWEEEEIREFINLFQYQGFDAAVVLSRIFELAKKADLSRDQMLRDIRALITLHLTRGNKLSSIEKRLSEEGKKEFALLKARYQLVDKAKEAADLTLSRIAIANAGLTCRILPQVVAHTAVTRSRMESLSADYPVCMMHNAFAGLIDETLPEDSIKALVDAHRLYLLEFSRTINVKHRGMEAKEILDANDSALQAGLASSFLTPSQKRAYLLSFKLVDGNGKVNKAVQQAATVLRSLI
notes: as for B1
B10: UUKV-N protein point mutant I14A, mammalian two-hybrid fusions (natural protein)
chain: MAMPENWVRFAIEASDAQWEEEEIREFINLFQYQGFDAAVVLSRIFELAKKADLSRDQMLRDIRALITLHLTRGNKLSSIEKRLSEEGKKEFALLKARYQLVDKAKEAADLTLSRIAIANAGLTCRILPQVVAHTAVTRSRMESLSADYPVCMMHNAFAGLIDETLPEDSIKALVDAHRLYLLEFSRTINVKHRGMEAKEILDANDSALQAGLASSFLTPSQKRAYLLSFKLVDGNGKVNKAVQQAATVLRSLI
notes: as for B1
B11: Uukuniemi virus nucleocapsid (N) protein, full-length wild type (pcDNA-UUKV-N) (natural protein)
chain: MAMPENWVRFAIEISDAQWEEEEIREFINLFQYQGFDAAVVLSRIFELAKKADLSRDQMLRDIRALITLHLTRGNKLSSIEKRLSEEGKKEFALLKARYQLVDKAKEAADLTLSRIAIANAGLTCRILPQVVAHTAVTRSRMESLSADYPVCMMHNAFAGLIDETLPEDSIKALVDAHRLYLLEFSRTINVKHRGMEAKEILDANDSALQAGLASSFLTPSQKRAYLLSFKLVDGNGKVNKAVQQAATVLRSLI
notes: Uukuniemi virus nucleocapsid (N) protein, 254 aa residues; No tag is mentioned; detected with a rabbit antiserum against UUKV-N; also called UUKV-N protein; wt N protein; source: COS-7, transfected (pcDNA-UUKV-N), in lysate

Values joined by “and” are separate entries in the source; they are usually repeats but may differ in a detail not shown here. Identical values can stand only once.

The first data set concerns the molecule itself. Description: two-hybrid; mammalian two-hybrid in HeLa cells: GAL4 DNA-BD (pM) and VP16 DNA-AD (pVP) fusions, pG5luc firefly luciferase normalised to Renilla luciferase, 24 h post-transfection; percent of the wt N-N interaction.
On to B1, for which the “M2H % of interaction” value was 23 ± 5%. Same read-out and setting: as for B2, the figure is over 100%; as for B3, over 100%; as for B4, over 100%. Turning to B5, the “M2H % of interaction” value stood at 56 ± 12%.

Consider B6, for which the “M2H % of interaction” value was over 100%.

B7: the “M2H % of interaction” value is over 100%.

For B8, the “M2H % of interaction” value came to 96 ± 11%. As to B9, the “M2H % of interaction” value amounted to 34 ± 4%.

For B10, the “M2H % of interaction” value was found to be 60 ± 18%.

The next data set deals with the molecule itself. The data set is described as follows: cross-linking; lysates of transfected COS-7 cells (PBS pH 7.4, freeze-thawed), 0.1 or 0.5 mM BS3, 30 min at room temperature, quenched with 50 mM Tris-HCl pH 7.5; 10% SDS-PAGE, immunoblot with rabbit antiserum against UUKV-N. On the technique in general: In western blotting, separated proteins are transferred to a membrane and probed.
Take B11: the “stoichiometry N” value is 2 and 3.

Broadly, the stoichiometry N is a count of units in the complex or per binding partner.

For the origin of these results see paper PMC2925374, “Oligomerization of Uukuniemi virus nucleocapsid protein” (Virology Journal, 2010).
